From patent publication US20250277045A1 (KEYMED BIOSCIENCES, published 2025) come the findings set out here.

Changes are numbered by the printed parent chain.

The labels stand for the following.
B1: h29A11-CD3 (bispecific antibody, V domains shown)
VH 1: QVQLVQSGSELKKPGASVKVSCKASGYIFTNFGMNWVREAPGQGLEWMGWINTYTGEQIYADDFKGRFAFSLDTSASTAYLQISSLKAEDTAVYFCARGEIYYGYDVGFVYWGQGTLVTVSS
VL 1: DIVLTQSPASLAVSPGQRATITCRASKSVSTSGYSYMHWYQKKPGQPPKLLIYLASNLESGVPARFSGSGSGTDFTLTINPVEANDTANYYCQHSRELPWTFGQGTKVEIK
VH 2: EVQLVESGGGLVQPGGSLRLSCAASGFTFNTYAMNWVRKAPGKGLEWVGRIRSKYNNYATYYADSVKDRFTISRDDSKNSLYLQMNSLKTEDTAVYYCVRHGNFGNSYVSWFAYWGQGTLVTVSS
VL 2: QAVVTQEPSLTVSPGGTVTLTCRSSTGAVTTSNYANWVQEKPGQAPRGLIGGTNKRAPWTPARFSGSLLGGKAALTITGAQAEDEAEYYCVLWYSNLWVFGGGTKLTVL
B2: h15H10-CD3 (bispecific antibody, V domains shown)
VH 1: B1 VH 1 with I28T, E57D, Q58L, A61G, V110A
VL 1: B1 VL 1
VH 2: B1 VH 2
VL 2: B1 VL 2
B3: h34G2-CD3 (bispecific antibody, V domains shown)
VH 1: B1 VH 1 with I28T, F32Y, Q58R
VL 1: B1 VL 1
VH 2: B1 VH 2
VL 2: B1 VL 2
Throughout, for Upregulation of CD25 (%), CD4+T: test concentration or dose not given here.
Throughout, for Upregulation of CD25 (%), CD8+T: test concentration or dose not given here.
Throughout, for Upregulation of CD69 (%), CD4+T: test concentration or dose not given here.
Throughout, for Upregulation of CD69 (%), CD8+T: test concentration or dose not given here.

The target of one assay is T1, human BCMA on cells (CHO-hBCMA clone 2C2; NCI-H929; RPMI-8226) (human, UniProt Q02223 1-184).
T1 sequence (looked up): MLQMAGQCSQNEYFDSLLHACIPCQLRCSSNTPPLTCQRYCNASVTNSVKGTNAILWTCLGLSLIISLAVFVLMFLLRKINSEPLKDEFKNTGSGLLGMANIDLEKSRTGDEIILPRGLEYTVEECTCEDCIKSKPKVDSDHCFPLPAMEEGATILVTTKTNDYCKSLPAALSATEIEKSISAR
Put plainly: cell-based or functional assay.
Regarding B1, the “Killing EC50 (TDCC, LDH release; PBMC + RPMI-8226)” value (shortened to “Killing EC50”) is 0.69 nM.
Regarding B2, the “Killing EC50” value was 1.83 nM.
B3: the “Killing EC50” value is 1.02 nM.

In the next assay the target is human CD3 on T cells (Jurkat cells; human peripheral blood CD4+ and CD8+ T cells) (human, UniProt P07766 23-207). Put plainly: cell-based or functional assay.
Chain of human CD3 on T cells (Jurkat cells; human peripheral blood CD4+ and CD8+ T cells) (P07766 23-207): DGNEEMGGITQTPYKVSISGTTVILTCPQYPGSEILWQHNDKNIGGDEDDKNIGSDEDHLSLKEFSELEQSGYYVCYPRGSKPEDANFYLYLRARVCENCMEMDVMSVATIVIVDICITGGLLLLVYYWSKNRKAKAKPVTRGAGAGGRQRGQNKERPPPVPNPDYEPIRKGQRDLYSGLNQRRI
Regarding B1, the “Upregulation of CD25 (%), CD4+T” value was found to be 33%; the “Upregulation of CD25 (%), CD8+T” value was 36%; the “Upregulation of CD25 EC50, CD4+T” value came to 0.45 nM; the “Upregulation of CD25 EC50, CD8+T” value came to 3.85 nM. Further, the “Upregulation of CD69 (%), CD4+T” value stood at 47%; the “Upregulation of CD69 (%), CD8+T” value was found to be 58%; the “Upregulation of CD69 EC50, CD4+T” value was 0.37 nM; the “Upregulation of CD69 EC50, CD8+T” value was 3.39 nM.
Take B2: the “Upregulation of CD25 (%), CD4+T” value is 36%; the “Upregulation of CD25 (%), CD8+T” value amounted to 41%; the “Upregulation of CD25 EC50, CD4+T” value turned out to be 3.85 nM; the “Upregulation of CD25 EC50, CD8+T” value worked out at 2.64 nM. In addition, the “Upregulation of CD69 (%), CD4+T” value came out at 58%; the “Upregulation of CD69 (%), CD8+T” value turned out to be 62%; the “Upregulation of CD69 EC50, CD4+T” value turned out to be 3.39 nM; the “Upregulation of CD69 EC50, CD8+T” value was found to be 0.94 nM.
B3: the “Upregulation of CD25 (%), CD4+T” value was 27%; the “Upregulation of CD25 (%), CD8+T” value was 33%; the “Upregulation of CD25 EC50, CD4+T” value is 1.18 nM; the “Upregulation of CD25 EC50, CD8+T” value was 1.28 nM. Also, the “Upregulation of CD69 (%), CD4+T” value amounted to 42%; the “Upregulation of CD69 (%), CD8+T” value amounted to 55%; the “Upregulation of CD69 EC50, CD4+T” value came to 0.68 nM; the “Upregulation of CD69 EC50, CD8+T” value was 0.57 nM.
